Measurements from patent US20180022822A1 (MABIMMUNE DIAGNOSTICS, published 2018).

How the values were obtained:
[1] = target: T1, recombinant human Dipeptidyl Peptidase 9 (DPP9) (human, UniProt Q86TI2 1-863, limits assumed); assay: sandwich ELISA: F19 coated as capture antibody, homologue titrated, HRP-labelled NI-206.82C2 as detection antibody; no signal means that no F19/antigen/82C2 sandwich formed
T1 construct: Bought active enzyme; also called rhDPP9
Experimental: (§1) The coating solution was removed and the plate was blocked with 40 μL 2% BSA in PBS blocking buffer for 1 h at room temperature and then discarded. 30 uL sample solution was then added. Sample solutions included recombinant human FAP standard (FIG. 17A), human serum at varying dilutions (FIG. 17B), FAP homologues (FIG. 17C), serum samples from healthy patients (FIGS. 18 and 19), serum samples patients with metastatic colorectal cancer (FIG. 18), serum samples from patients with cardiovascular disease (FIG. 19), sodium citrate plasma samples from healthy patients (FIG. 20), and sodium citrate samples from patients with symptomatic carotid atherosclerotic plaques (FIG. 20). Sample solutions were added at a total volume of 30 μL. The plate was washed three times with 40 μL PBS and blotted dry. […] The plate was then washed again three times with 3×PBS and blotted dry. 30 μL TMB (3,3′,5,5′-Tetramethylbenzidine) solution was then added to each well and allowed to develop for 5-10 minutes at room temperature. The reaction was then stopped by the addition of 30 μL 1M H2SO4, and absorbance at 450 nm was read with a plate reader.

[2] = target: T2, recombinant human Prolyl Oligopeptidase/Prolyl Endopeptidase (POP/PREP) (human, UniProt P48147 1-710); assay: as above
T2 construct: Bought active enzyme; also called rhPOP/PREP; BPS Bioscience 80105
T2 sequence (looked up): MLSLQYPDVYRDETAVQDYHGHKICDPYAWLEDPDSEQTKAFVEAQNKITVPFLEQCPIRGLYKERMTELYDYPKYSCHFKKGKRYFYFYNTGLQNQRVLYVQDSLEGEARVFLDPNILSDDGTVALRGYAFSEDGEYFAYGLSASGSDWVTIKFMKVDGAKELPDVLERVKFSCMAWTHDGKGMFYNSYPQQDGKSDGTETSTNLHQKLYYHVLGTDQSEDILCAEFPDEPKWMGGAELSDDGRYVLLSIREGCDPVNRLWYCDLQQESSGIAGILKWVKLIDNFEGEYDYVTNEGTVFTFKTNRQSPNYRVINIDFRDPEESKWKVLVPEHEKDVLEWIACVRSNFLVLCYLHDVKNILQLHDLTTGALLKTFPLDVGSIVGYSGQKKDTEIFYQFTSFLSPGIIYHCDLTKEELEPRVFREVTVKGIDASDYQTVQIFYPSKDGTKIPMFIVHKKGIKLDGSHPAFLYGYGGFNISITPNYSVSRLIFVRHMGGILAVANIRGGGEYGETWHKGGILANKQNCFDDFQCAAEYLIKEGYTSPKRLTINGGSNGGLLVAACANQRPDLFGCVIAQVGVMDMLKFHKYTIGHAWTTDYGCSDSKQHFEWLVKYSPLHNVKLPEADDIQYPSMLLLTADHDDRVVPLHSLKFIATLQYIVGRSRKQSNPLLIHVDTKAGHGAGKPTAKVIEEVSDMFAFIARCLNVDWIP
Experimental: as §1

T1 sequence (Q86TI2 whole entry): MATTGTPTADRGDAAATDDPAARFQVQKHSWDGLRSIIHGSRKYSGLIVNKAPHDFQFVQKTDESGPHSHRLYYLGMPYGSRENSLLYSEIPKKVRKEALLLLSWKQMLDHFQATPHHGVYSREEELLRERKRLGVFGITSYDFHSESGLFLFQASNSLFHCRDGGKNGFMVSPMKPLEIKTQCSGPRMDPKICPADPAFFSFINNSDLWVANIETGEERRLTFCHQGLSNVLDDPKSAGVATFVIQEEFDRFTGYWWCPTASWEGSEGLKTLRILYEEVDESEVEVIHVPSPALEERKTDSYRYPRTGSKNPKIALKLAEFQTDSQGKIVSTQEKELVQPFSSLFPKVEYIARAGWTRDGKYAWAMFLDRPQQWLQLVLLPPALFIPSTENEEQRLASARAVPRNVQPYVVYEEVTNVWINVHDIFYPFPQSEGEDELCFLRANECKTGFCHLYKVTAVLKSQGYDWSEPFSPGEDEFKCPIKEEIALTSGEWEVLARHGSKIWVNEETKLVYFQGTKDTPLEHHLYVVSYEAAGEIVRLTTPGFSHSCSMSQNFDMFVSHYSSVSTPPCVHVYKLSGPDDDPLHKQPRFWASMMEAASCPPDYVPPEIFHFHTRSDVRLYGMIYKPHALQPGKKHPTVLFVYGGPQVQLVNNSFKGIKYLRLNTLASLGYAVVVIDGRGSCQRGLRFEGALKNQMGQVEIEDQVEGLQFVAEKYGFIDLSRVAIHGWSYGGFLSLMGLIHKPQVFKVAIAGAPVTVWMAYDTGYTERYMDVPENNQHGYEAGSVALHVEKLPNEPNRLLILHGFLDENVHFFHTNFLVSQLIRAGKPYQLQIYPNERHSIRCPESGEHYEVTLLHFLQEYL

binding result [1]: no binding (tested: 250 ng/mL) | binding result [2]: no binding (tested: 250 ng/mL)
B1: NI-206.82C2 (antibody, V domains shown)
VH: QVQLQQSGPGLVKPSQTLSLTCAISGDSVSSNSVTWNWIRQSPSRGLEWLGRTYYRSKWYNDYAVSVKGRITINPDTSKNQFYLQLKSVTPEDAAVYYCARDSSILYGDYWGQGTLVTVSS
VL: QAVLTQPSSLSASPGASASLTCTLPSGINVGTYRIFWFQQKPGSPPQYLLSYKSDSDNHQGSGVPSRFSGSKDASANAGILLISGLQSEDEADYYCMIWHSSAWVFGGGTKLTVL
notes: Recombinantly expressed as complete human IgG1 with a lambda light chain; HRP-labelled in the homologue and sandwich ELISAs, Cy5-labelled in flow cytometry; also called HRP-labelled 82C2; Cy5 labelled 82C2
